Non-standard residues stand in square brackets, D forms with d.
Columns and labels:
[1] = biological target: T1, full-length ITGA2 (UniProt P17301 30-1181, limits assumed); test: cell-based or functional assay
T1 sequence (looked up): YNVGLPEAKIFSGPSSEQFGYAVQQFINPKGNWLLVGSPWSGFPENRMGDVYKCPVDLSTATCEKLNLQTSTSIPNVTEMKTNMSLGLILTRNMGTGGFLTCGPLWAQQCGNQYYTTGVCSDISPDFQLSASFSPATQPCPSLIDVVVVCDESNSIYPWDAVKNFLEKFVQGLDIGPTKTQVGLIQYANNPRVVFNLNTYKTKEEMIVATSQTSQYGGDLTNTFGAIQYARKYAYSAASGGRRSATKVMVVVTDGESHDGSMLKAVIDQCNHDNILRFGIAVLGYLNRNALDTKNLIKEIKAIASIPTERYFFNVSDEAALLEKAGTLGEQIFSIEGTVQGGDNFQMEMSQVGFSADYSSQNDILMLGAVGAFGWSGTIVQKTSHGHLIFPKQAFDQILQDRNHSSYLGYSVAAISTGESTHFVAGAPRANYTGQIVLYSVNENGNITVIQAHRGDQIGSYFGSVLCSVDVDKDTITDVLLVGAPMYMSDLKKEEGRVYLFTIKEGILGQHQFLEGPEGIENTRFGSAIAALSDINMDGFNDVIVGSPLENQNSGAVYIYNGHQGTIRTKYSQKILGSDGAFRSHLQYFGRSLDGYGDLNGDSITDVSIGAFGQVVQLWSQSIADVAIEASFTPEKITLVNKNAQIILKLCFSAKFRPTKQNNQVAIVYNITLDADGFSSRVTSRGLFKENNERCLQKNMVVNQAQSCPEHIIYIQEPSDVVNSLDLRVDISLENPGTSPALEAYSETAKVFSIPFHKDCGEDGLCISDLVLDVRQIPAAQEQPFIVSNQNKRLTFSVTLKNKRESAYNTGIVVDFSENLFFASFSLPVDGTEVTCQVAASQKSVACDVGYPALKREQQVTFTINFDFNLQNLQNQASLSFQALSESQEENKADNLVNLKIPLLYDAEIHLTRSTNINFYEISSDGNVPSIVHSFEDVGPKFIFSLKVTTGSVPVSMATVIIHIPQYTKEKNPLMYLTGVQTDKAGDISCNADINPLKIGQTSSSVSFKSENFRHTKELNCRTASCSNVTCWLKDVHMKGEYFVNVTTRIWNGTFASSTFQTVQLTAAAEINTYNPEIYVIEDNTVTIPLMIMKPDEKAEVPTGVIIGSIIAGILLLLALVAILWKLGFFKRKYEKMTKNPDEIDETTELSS

[2] = biological target: T2, KLGFFKR motif-deficient (dm) ITGA2 (UniProt P17301 30-1181); test: co-immunoprecipitation with anti-CRT antibody, Western blot
T2 construct: whole, on cells; Deletion of the seven residues KLGFFKR; also called A2dm; motif-deficient ITGA2
T2 sequence (looked up): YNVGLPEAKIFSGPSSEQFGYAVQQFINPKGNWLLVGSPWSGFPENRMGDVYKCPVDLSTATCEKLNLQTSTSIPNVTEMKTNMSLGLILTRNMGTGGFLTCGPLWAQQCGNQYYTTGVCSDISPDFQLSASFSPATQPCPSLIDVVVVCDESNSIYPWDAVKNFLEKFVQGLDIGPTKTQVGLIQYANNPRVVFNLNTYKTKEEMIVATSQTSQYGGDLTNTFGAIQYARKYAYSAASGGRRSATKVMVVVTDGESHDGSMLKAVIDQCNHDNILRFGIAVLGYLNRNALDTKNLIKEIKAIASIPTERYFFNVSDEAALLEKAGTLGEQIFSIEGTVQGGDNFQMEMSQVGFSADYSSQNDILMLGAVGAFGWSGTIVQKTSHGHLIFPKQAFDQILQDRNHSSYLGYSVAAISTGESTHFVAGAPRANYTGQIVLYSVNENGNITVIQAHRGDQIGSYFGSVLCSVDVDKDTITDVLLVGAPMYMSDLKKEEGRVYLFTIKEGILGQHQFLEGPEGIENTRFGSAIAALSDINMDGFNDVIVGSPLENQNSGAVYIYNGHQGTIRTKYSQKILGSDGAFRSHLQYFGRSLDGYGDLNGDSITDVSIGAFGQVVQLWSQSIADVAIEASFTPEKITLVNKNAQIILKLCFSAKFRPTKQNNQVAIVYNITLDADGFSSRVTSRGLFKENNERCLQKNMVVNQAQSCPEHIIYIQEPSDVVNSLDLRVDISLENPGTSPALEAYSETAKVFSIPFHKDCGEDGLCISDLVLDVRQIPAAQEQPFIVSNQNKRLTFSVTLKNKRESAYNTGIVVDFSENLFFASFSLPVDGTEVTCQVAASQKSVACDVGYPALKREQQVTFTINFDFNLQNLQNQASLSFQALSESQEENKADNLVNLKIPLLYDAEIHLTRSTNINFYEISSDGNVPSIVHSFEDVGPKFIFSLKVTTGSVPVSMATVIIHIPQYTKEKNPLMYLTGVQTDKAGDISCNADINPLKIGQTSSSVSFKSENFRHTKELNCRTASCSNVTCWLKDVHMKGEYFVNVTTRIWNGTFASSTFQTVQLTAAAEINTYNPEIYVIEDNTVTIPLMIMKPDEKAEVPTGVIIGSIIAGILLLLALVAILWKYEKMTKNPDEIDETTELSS
Method: (§1) After incubation, agarose beads were centrifuged and washed by PBS. Immunoprecipitated proteins were collected by treating the beads with 0.2 M glycine and subjected to Western Blotting (WB) analysis.
(§2) Total protein was extracted with RIPA buffer supplied with protease inhibitor (Roche), resolved in 10% SDS-PAGE and transferred onto Immobilon-P PVDF membrane (Millipore). Membranes were blocked with 5% non-fat dry milk in Tris-buffered saline with 0.1% Tween (TBST) for 2 hours, then were incubated overnight with corresponding antibodies at 4° C., followed by incubation with horseradish peroxidase-conjugated goat anti-mouse IgG (Santa Cruz Biotechnology) or goat anti-rabbit IgG (Santa Cruz Biotechnology) as appropriate, for 2 hours at room temperature in TBST. Antibody binding was detected with Pierce ECL Western Blotting Substrate (Thermo Scientific) and images were visualized with Azure C600 imaging system (Azure Biosystems).

[3] = biological target: T1, full-length ITGA2; test: co-immunoprecipitation with anti-CRT antibody from cell lysate, Western blot
Method: as §1, §2

Ac-[dR][dE][dP][dV][dC][dL][dC][dR]G[dI][dV][dW][dR][dQ][dV][dA][dP][dP][dF]G[dL][dE][dS][dR][dR][dR][dQ][dR][dR][dK][dK][dR]-NH2 (cysteine pairing not given here) [DRI-TAT-SP peptide (D-retro-inverso form of TAT-SP)]
EC50 of reversing chemoresistance in BCSCs in the presence of DOX (MTS assay) [1]: 2.3 µM

B1: calreticulin (CRT) (other, UniProt P27797 18-417, looked up)
chain: EPAVYFKEQFLDGDGWTSRWIESKHKSDFGKFVLSSGKFYGDEEKDKGLQTSQDARFYALSASFEPFSNKGQTLVVQFTVKHEQNIDCGGGYVKLFPNSLDQTDMHGDSEYNIMFGPDICGPGTKKVHVIFNYKGKNVLINKDIRCKDDEFTHLYTLIVRPDNTYEVKIDNSQVESGSLEDDWDFLPPKKIKDPDASKPEDWDERAKIDDPTDSKPEDWDKPEHIPDPDAKKPEDWDEEMDGEWEPPVIQNPEYKGEWKPRQIDNPDYKGTWIHPEIDNPEYSPDPSIYAYDNFGVLGLDLWQVKSGTIFDNFLITNDEAYAEEFGNETWGVTKAAEKQMKDKQDEEQRLKEEEEDKKRKEEEEAEDKEDDEDKDEDEEDEEDKEEDEEEDVPGQAKDEL
notes: Endogenous protein in cell lysate; pulled down with anti-CRT antibody
binding result [2]: no binding | binding result [3]: binds

— patent US20230133141A1 (HONG KONG POLYTECHNIC UNIVERSITY, published 2023)
